Test results taken from doi:10.1101/2024.04.19.590371 (bioRxiv, 2024).
One block for each binder: values may come before it.

Columns and labels:
His+SUMO-atDjA2 = biological target: T1, His+SUMO-atDjA2 (Arabidopsis thaliana, UniProt P42825 1-419); assay: pull-down
T1 sequence (looked up): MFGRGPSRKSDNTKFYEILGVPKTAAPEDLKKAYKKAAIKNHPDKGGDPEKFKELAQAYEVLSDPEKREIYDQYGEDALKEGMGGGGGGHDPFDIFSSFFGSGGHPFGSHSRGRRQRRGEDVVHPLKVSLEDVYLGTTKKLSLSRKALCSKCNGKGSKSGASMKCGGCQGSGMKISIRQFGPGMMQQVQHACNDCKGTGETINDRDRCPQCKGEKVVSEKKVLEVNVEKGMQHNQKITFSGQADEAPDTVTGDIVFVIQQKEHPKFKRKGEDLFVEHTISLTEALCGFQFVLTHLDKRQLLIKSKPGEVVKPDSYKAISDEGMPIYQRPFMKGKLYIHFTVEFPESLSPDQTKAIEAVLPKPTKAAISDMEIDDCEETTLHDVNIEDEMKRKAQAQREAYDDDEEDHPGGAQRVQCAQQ

His+SUMO-atDjA1 = biological target: T2, His+SUMO-atDjA1 (Arabidopsis thaliana, UniProt Q94AW8 1-420); assay: pull-down
T2 sequence (looked up): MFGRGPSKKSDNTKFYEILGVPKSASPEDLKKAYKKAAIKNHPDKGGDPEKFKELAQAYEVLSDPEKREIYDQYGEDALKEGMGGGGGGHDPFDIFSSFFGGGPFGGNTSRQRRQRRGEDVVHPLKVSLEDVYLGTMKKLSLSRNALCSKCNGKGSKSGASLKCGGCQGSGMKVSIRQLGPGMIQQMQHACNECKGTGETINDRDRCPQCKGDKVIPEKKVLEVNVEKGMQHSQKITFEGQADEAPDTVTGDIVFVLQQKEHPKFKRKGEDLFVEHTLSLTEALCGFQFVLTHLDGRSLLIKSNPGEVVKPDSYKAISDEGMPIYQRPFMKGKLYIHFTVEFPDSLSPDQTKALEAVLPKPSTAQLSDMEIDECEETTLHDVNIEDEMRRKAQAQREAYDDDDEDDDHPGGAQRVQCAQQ

- binding result (His+SUMO-atDjA2): binds
B1: GST-OM64 (cytosolic domain, aa 488-586) (domain or fragment, Arabidopsis thaliana, UniProt F4KCL7 488-586, looked up)
chain: SEVMKEKGNAAYKGKQWNKAVNFYTEAIKLNGANATYYCNRAAAFLELCCFQQAEQDCTKAMLIDKKNVKAYLRRGTARESLVRYKEAAADFRHALVLE

- binding result (His+SUMO-atDjA1): binds
B2: GST-Tom9.2 (cytosolic domain, aa 1-53) (domain or fragment, Arabidopsis thaliana, UniProt Q9FNC9 1-53, looked up)
chain: MAAKRIGAGKSGGGDPNILARISNSEIVSQGRRAAGDAVEVSKKLLRSTGKAA

- binding result (His+SUMO-atDjA1): binds
- binding result (His+SUMO-atDjA2): binds
B3: GST-Metaxin (cytosolic domain, aa 1-191) (domain or fragment, Arabidopsis thaliana, UniProt O64471 1-191, looked up)
chain: MEGDQETNVYTLVARKPSFDLPTACPNCLPAYIYLKLAQLPFELAFNSTFPDSDELPYFESDTYVAYNNEDGGVIEKLKKDGIVNLDSQLQSLSDYLSLKALIVSWLEEALTYEIWVGTEGISTSKIYYSDLPWVISKVLFYKQTYLAKNRLGITKENAEQREKQIYKRASEAYEALSTRLGEQKFLFEDR
